Data as given in US20170224836A1 (Novartis, published 2017).
Read-outs that look alike come from different tables or passages of the source.

Columns and labels:
hCDH6aa54-615 APPavi [1] = molecular target: T1, hCDH6aa54-615 APPavi (human, UniProt P55285 54-615); experiment: SPR binning
T1 sequence: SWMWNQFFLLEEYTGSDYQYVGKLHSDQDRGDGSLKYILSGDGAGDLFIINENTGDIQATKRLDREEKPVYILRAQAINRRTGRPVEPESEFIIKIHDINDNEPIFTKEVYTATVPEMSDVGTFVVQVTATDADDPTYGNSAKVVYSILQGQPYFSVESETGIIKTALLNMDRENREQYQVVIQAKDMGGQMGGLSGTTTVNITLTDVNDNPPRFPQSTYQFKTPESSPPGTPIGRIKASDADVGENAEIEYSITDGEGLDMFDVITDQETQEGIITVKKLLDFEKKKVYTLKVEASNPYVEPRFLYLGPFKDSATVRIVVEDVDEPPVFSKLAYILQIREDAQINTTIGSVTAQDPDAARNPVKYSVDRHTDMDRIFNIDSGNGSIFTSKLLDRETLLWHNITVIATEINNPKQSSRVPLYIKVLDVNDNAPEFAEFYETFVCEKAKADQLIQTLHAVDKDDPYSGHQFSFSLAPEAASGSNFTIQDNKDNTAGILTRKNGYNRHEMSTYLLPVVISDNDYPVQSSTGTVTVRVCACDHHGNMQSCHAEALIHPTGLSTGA

hCDH6aa54-615 APPavi [2] = molecular target: T1, hCDH6aa54-615 APPavi; experiment: SPR binning; remark: listed apart in the source
cynomolgus CDH6 on cells = molecular target: T2, cynomolgus CDH6 on cells (cynomolgus, UniProt A0A2K5TW62 54-790); experiment: FACS on CHO-cynoCDH6 cells
T2 sequence: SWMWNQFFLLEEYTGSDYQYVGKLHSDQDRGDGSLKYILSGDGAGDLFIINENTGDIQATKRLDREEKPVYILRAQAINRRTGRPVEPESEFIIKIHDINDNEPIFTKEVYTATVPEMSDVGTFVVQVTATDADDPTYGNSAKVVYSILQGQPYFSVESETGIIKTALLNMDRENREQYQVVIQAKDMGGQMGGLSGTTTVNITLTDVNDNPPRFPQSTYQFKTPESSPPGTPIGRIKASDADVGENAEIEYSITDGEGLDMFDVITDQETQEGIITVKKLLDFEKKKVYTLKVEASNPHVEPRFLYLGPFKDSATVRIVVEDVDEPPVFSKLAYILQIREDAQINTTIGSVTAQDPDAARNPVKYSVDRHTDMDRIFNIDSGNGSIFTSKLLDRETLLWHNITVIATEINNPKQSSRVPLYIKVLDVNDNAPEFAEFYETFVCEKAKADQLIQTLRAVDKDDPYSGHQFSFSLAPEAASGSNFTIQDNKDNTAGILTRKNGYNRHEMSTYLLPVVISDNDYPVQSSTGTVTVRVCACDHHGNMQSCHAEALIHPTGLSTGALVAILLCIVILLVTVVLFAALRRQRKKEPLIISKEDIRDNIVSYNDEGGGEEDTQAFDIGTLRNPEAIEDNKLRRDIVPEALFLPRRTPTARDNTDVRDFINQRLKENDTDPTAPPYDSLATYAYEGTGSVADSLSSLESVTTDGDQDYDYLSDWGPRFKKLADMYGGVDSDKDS

hCDH6aa54-615 APPavi [3] = molecular target: T1, hCDH6aa54-615 APPavi; experiment: SPR binning; remark: listed apart in the source
hCDH6aa54-615 APPavi [4] = molecular target: T1, hCDH6aa54-615 APPavi; experiment: SPR binning; remark: listed apart in the source
mouse CDH6 on cells = molecular target: T3, mouse CDH6 on cells (mouse, UniProt P97326 54-790); experiment: FACS on CHO-mouseCDH6 cells
T3 sequence (looked up): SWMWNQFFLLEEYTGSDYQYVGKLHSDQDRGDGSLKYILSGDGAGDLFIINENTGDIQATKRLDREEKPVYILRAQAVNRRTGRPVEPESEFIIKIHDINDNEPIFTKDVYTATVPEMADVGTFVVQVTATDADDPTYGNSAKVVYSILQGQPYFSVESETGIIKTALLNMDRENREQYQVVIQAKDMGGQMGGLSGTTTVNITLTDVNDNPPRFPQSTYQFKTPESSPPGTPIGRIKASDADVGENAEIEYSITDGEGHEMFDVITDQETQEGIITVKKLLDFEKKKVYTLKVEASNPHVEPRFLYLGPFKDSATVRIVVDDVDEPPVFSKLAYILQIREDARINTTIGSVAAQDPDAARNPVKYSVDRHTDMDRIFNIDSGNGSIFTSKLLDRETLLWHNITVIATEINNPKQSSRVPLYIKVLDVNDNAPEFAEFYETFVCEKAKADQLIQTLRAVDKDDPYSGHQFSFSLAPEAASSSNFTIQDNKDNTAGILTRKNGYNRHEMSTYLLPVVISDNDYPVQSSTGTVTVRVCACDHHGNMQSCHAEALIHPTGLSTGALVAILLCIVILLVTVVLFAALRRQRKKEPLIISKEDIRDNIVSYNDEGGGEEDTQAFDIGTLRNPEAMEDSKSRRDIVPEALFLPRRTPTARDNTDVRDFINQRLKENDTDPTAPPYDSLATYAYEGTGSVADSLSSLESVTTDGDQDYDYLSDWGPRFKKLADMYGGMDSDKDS

B1: NOV0712 (antibody, human IgG1, kappa, V domains shown)
VH: QVQLLESGGGLVQPGGSLRLSCAASGFTFSSHGMHWVRQAPGKGLEWVSVISGSGSNTGYADSVKGRFTISRDNSKNTLYLQMNSLRAEDTAVYYCARQWGSYAFDSWGQGTLVTVSS
VL: DIQMTQSPSSLSASVGDRVTITCRASQSISSYLNWYQQKPGKAPKLLIYAVSTLQSGVPSRFSGSGSGTDFTLTISSLQPEDFATYYCQQSGTFPPTTFGQGTKVEIKR
- response of secondary antibody on primary antibody-CDH6 complex (hCDH6aa54-615 APPavi [1]): 5.12
- response of secondary antibody on primary antibody-CDH6 complex (hCDH6aa54-615 APPavi [2]): 6
- EC50 (read off the curve) (cynomolgus CDH6 on cells): ~1 nM
- response of secondary antibody on primary antibody-CDH6 complex (hCDH6aa54-615 APPavi [3]): 9.51
- response of secondary antibody on primary antibody-CDH6 complex (hCDH6aa54-615 APPavi [4]): -3.26
- EC50 (read off the curve) (mouse CDH6 on cells): ~1 nM
